Results on two molecules are retold here after US20220153832A1 (PIONYR IMMUNOTHERAPEUTICS, published 2022).

In one test the target is T1, hVar3 (RG3036) (human, UniProt Q9UEW3 147-520).
T1 construct: Human MARCO His-CLD-SRCR with Q452D, Y472S and K473S (already in the entry); also called recombinant human SRCR MARCO hVar3 protein
Nature of the test: ELISA on recombinant hVar3 protein, A450.

Test [1] has as its target T2, N-terminal his-tagged mouse MARCO protein, recombinant (mouse, UniProt Q60754 150-518).
T2 construct: The entry holds the His tag, the CLD and the SRCR domain; also called mMARCO (RG3016); PI-RG-3016
T2 sequence: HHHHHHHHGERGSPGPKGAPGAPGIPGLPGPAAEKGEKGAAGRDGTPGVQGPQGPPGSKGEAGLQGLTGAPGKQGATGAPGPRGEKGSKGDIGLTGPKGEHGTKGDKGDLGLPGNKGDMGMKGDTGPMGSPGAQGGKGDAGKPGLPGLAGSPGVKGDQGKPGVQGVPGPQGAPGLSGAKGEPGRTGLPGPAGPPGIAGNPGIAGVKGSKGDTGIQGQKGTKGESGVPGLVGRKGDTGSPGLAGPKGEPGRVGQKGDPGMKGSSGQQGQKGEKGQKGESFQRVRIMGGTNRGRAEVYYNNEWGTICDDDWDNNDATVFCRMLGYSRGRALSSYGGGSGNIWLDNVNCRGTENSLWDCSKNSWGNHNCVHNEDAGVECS
In words: ProbeLife Gator study, statement on the loaded antibodies. The gist of the method:
(§1)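 Antibody pairing on MARCO was assessed by biolayer interferometry on ProbeLife probes. In tandem format, 200 nM His-tagged MARCO was loaded on anti-His probes for 120 s, then a 60 s baseline, a first antibody at 200 nM, then a second antibody at 100-200 nM. In sandwich format, the first antibody (200 nM) was captured on anti-Fc probes for 120 s, followed by 200 nM MARCO and then the second antibody (200 nM), each for 120 s.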

Test [2] concerns the target T3, hMARCO(His-CLD-SRCR) (RG3033) (human, UniProt Q9UEW3 147-520).
T3 construct: also called wild type hMARCO
T3 sequence: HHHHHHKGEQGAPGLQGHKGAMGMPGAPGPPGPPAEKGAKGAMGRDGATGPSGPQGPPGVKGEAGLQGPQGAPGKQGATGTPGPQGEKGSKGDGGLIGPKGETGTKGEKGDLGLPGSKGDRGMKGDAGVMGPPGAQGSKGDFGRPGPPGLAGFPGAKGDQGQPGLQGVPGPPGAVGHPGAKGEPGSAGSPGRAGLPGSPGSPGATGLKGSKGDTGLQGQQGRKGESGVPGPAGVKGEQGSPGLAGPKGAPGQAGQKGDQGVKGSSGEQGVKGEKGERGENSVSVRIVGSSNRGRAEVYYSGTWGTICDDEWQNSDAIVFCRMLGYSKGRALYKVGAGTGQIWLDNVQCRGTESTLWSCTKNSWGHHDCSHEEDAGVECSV
The test is described as above. In short, it runs like this:
as §1

Test [3] addresses T2, N-terminal his-tagged mouse MARCO …. Nature of the test: Biacore.
For test [4] the target is unchanged. In words: ELISA on mMARCO ECD with 2 mM Ca2+, A450-A620.
Test [5] has as its target T4, Mouse MARCO, full length, on cells (mouse, UniProt Q60754 1-518).
T4 construct: whole, on cells; the cell type is named under assay; also called muMARCO; MuMARCO
T4 sequence (looked up): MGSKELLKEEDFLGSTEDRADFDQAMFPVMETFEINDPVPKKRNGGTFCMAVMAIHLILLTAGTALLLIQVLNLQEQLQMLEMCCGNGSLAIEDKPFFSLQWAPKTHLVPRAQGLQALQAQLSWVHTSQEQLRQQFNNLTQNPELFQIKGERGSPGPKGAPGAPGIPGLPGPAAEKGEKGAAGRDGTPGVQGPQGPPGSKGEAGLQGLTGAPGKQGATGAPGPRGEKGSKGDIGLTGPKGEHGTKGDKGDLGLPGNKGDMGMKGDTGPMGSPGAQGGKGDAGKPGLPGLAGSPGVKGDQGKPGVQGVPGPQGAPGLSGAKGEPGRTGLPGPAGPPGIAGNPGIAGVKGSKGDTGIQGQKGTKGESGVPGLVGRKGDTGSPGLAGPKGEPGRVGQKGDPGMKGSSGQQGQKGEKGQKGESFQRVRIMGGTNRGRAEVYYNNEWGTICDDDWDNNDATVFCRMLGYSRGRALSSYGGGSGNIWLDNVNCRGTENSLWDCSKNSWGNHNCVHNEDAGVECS
In words: flow cytometry, 293T (muMARCO).

The target in test [6] is T4, Mouse MARCO, full length, on cells. In words: competition with AF488 E. coli binding to muMARCO 293T cells, flow cytometry.

Some results are limits rather than exact numbers.

B1: PI-3035-AB (antibody, mouse IgG2a, kappa, V domains shown)
VH: QVQLKESGPGLVQPSQTLSLTCTVSGFSLTSYTLSWVRQPPGKGLEWIGAIWGGDNTDYNSALKSRLSISRDTSKSQVLLKMNSLQTEDTAIYFCTRELGGSFDYWGQGVMVTVSS
VL: DIQMTQSPPVLSASVGDRVTLSCKTSQNINKKLDWYQQKHGEAPKLLIYYTNNLQTGIPSRFSGSGSGTDFTLTISTLQPEDVATYYCYQYDSGFTFGAGTKLELKR
notes: Mouse IgG2a chimera derived from PI-HX-3092; also called HX3092 (A mutation) - mIgG2a
For B1, the binding result (with hVar3 (RG3036); in test [1]; in test [2]) was “binds” throughout.

B2: PI-3008-AB (antibody, mouse IgG2a, kappa, V domains shown)
VH: EVQLVESGGGLVKPGASLKLSCVASGFTFSDDWMNWVRQTPGKAMEWIGDIKYDGSYTNYVPSLKNRLTISRDNAKNTLYLQMTNVRSEDTATYYCTSGGVFDYWGQGVMVTVSS
VL: EIVLSQSPTTMAASPGEKVTITCRASSSVSYMHWFQQKSGTSPKPWIYDTSKLASGVPDRFSGSGSGTSYSLTISSMEAEDAATYYCLQRSGYPPTFGAGTKLEVKR
notes: Recombinant anti-mouse MARCO antibody with mouse IgG2a Fc, from PI-HX-3016
Take B2: the Kd in test [3] was < 0.02 nM. Also, the binding result with hVar3 (RG3036) is “no binding (tested: 20 nM)”. Moreover, in test [4], the “EC50 (read off the curve)” value was ~0.07 nM. The EC50 in test [5] came out at 1.1 nM; in test [6], 1.81 nM.
